Results: article PMC11339442
pEC50: −log10 of the molar value.

Target: CD20
Assay: flow_cytometry
Conditions: 4.0 °C

Substance	pEC50 (pH 7.4)	pEC50 (pH 6.0)
2OSL-Fab (WT)	7.85	
2OSL-Fab-H-Y97NY		7.70
2OSL-Fab-L-Y32NY		8.10
